Article PMC8244417

Tests used:
[1] = target: TmZIP C-terminally fused to TEV-GFP-His10; assay: SDS-PAGE of the IMAC-pure protein
[2] = target: TmZIP N-terminally fused to His10-GFP-TEV; assay: SDS-PAGE of the IMAC-pure protein

Row | Substance | stoichiometry N [1] | stoichiometry N [2]
1 | TmZIP C-terminally fused to TEV-GFP-His10 (natural protein) | 2 | 
2 | TmZIP N-terminally fused to His10-GFP-TEV (natural protein) |  | 2
